Measured values published in patent publication US20190338048A1 (published 2019).
Changes are numbered by the printed parent chain. Numbers in names are those of the source. Read-outs that look alike come from different tables or passages of the source.

Key:
Recombinant human IL-17A [1] = target: Recombinant human IL-17A (human, UniProt Q16552 20-155, limits assumed); assay: SPR
Target sequence in this assay (Q16552 20-155 limits assumed): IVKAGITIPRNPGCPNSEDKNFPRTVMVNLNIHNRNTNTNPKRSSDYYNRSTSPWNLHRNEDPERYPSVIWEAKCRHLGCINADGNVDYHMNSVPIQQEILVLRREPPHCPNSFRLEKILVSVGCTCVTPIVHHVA

Recombinant human IL-17A [2] = target: T1, Recombinant human IL-17A (human, UniProt Q16552 20-155, limits assumed); assay: SPR; remark: listed apart in the source
T1 sequence (Q16552 20-155 limits assumed): as above

Recombinant human IL-17A [3] = target: T1, Recombinant human IL-17A; assay: SPR; remark: listed apart in the source
[4] = target: T2, Recombinant HER2 protein (HER2-ECD) (UniProt P04626 23-652, limits assumed); assay: SPR, Fab captured, HER2 as analyte
[5] = target: T2, Recombinant HER2 protein (HER2-ECD); assay: SPR
[6] = target: His-tagged Influenza B Hemagglutinin (B/Brisbane/60/2008) (Influenza B virus (B/Brisbane/60/2008)); assay: SPR
[7] = target: T3, His-tagged recombinant human CD-19 (human, UniProt P15391 20-291, limits assumed); assay: SPR
T3 sequence (looked up): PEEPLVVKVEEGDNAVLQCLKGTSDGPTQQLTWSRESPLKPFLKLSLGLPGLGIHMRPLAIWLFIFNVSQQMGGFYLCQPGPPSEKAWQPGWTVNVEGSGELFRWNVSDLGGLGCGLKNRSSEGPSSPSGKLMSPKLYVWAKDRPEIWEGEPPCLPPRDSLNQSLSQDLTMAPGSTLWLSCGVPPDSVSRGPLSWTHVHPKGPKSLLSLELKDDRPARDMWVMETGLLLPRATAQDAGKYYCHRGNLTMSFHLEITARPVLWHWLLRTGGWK

[8] = target: T3, His-tagged recombinant human CD-19; assay: SPR; remark: listed apart in the source
[9] = target: T4, His-tagged recombinant human CD-19 (human, UniProt P15391 20-291, limits assumed); assay: SPR; remark: listed apart in the source
T4 sequence (looked up): T3 sequence (looked up)

[10] = target: T5, His-tagged Influenza B Hemagglutinin (B/Brisbane/60/2008) (Influenza B (B/Brisbane/60/2008)); assay: SPR
[11] = target: T4, His-tagged recombinant human CD-19; assay: SPR; remark: listed apart in the source
[12] = target: T5, His-tagged Influenza B Hemagglutinin …; assay: SPR; remark: listed apart in the source
[13] = target: T6, His-tagged recombinant human CD-19 (human, UniProt P15391 20-291, limits assumed); assay: SPR; remark: listed apart in the source
T6 sequence (looked up): T3 sequence (looked up)

B1: CAT-2200 Fab heterodimer H1L1 of designs 10662-10731 and 10662-10733 (H1 L45F, L1 unmodified) (Fab, name in Kabat numbering, V domains shown, not shown: small tags and cut ends)
VH: EVQLLESGGGLVQPGGSLRLSCAASGFTFSSYAMSWVRQAPGKGFEWVSAISGSGGSTYYADSVKGRFTISRDNSKNTLYLQMNSLRAEDTAVYYCARDLIHGVTRNWGQGTLVTVSS
VL: NFMLTQPHSVSESPGKTVTISCTRSSGSLANYYVQWYQQRPGSSPTIVIFANNQRPSGVPDRFSGSIDSSSNSASLTISGLKTEDEADYYCQTYDPYSVVFGGGTKLTVLG
Q: How did the Kd (Recombinant human IL-17A [1]) turn out when B1 was run?
A: 0.29 nM

B2: Design 4320 bispecific antibody, System A (CAT-2200 H1/L1 & Pertuzumab H2/L2) (bispecific antibody)
chain 1: not shown
chain 2: NFMLTQPHSVSESPGKTVTISCTRSSGSLANYYVQWYQQRPGSSPTIVIFANNQRPSGVPDRFSGSIDSSSNSASLTISGLKTEDEADYYCQTYDPYSVVFGGGTKLTVLGQPKAAPSVFLFPPSSEELQANTATLDCLISDFYPGAVTVAWKADSSPVKAGVETTTPSKQSNNKYAAFSYLSLTPEQWKSHRSYSCQVTHEGSTVEKTVAPTECS
chain 3: not shown
chain 4: DIQMTQSPSSLSASVGDRVTITCKASQDVSIGVAWYQQKPGKAPKLLIYSASYRYTGVPSRFSGSGSGTDFTLTISSLQPEDFATYYCQQYYIYPYTFGQGTKVEIKRTVAAPSVFIFPPSDEKLKSGTASVVCALNNFYPREAKVQWKVDNALQSGNSQESVTEQDSKDSTYSLSSRLTLSKADYEKHKVYACEVTHQGLSSPVTKSFNRGEC
Q: Which Kd (Recombinant human IL-17A [2]) does the source give for B2 here?
A: 0.36 nM

B3: Design 2816 bispecific antibody, System A (CAT-2200 H1/L1 & Pertuzumab H2/L2) (bispecific antibody)
chain 1: not shown
chain 2: B2 chain 2 with F120T, T133K, D137V, F179S, S183E
chain 3: not shown
chain 4: B2 chain 4 with K124R, A135L, Q160K
Q: B3 was tested. Which Kd (Recombinant human IL-17A [3]) did it give?
A: 0.51 nM

B4: Pertuzumab Fab heterodimer H2L2 of design 10674-10749 (H2 Q39K, L2 Q38E) (Fab, name in Kabat numbering, V domains shown, not shown: small tags and cut ends)
VH: EVQLVESGGGLVQPGGSLRLSCAASGFTFTDYTMDWVRKAPGKGLEWVADVNPNSGGSIYNQRFKGRFTLSVDRSKNTLYLQMNSLRAEDTAVYYCARNLGPSFYFDYWGQGTLVTVSS
VL: DIQMTQSPSSLSASVGDRVTITCKASQDVSIGVAWYQEKPGKAPKLLIYSASYRYTGVPSRFSGSGSGTDFTLTISSLQPEDFATYYCQQYYIYPYTFGQGTKVEIKR
Q: B4 was tested. Which “Change in KD of H2L2 Fab vs wild type, -(log(KD_design)-log(KD_wt))” value [4] did it give?
A: 0.12 log(KD) difference

Q: And the Kd [5]?
A: 6.09 nM

B5: Design 2979 bispecific antibody, System C (CR8071 H1/L1 & SGN-CD19a H2/L2) (bispecific antibody)
chain 1: QVQLVQSGAEVKKPGASVRVSCRASGYIFTESGITWVRQAPGQGLEWMGWISGYSGDTKYAQKLQGRVTMTKDTSTTTAYMELRSLRYDDTAVYYCARDVQYSGSYLGAYYFDYWSPGTLVTVSSASTKGPSVFPLAPSSKSTSGGTAALGCLVKDYFPEPVTVSWNSGALTSGVHTFPAVLQSSGLYSLKSVVTVPSSSLGTQTYICNVNHKPSNTKVDKKVEPKSCDKTHTCPPCPAPELLGGPSVFLFPPKPKDTLMISRTPEVTCVVVDVSHEDPEVKFNWYVDGVEVHNAKTKPREEQYNSTYRVVSVLTVLHQDWLNGKEYKCKVSNKALPAPIEKTISKAKGQPREPQVYVYPPSRDELTKNQVSLTCLVKGFYPSDIAVEWESNGQPENNYKTTPPVLDSDGSFALVSKLTVDKSRWQQGNVFSCSVMHEALHNHYTQKSLSLSPG
chain 2: not shown
chain 3: not shown
chain 4: EIVLTQSPATLSLSPGERATLSCSASSSVSYMHWYQQKPGQAPRLLIYDTSKLASGIPARFSGSGSGTDFTLTISSLEPEDFAVYYCFQGSVYPFTFGQGTKLEIKRTVAAPSVFIFPPSDEQLKSGTARVGCLLNNFYPREAKVQWKVDNALQSGNSQESVTEQDSKDSTYSLRSTLTLSKADYEKHKVYACEVTHQGLSSPVTKSFNRGEC
Q: Which results are given for B5?
A: Kd [6]: 0.93 nM; Kd [7]: 45.1 nM; Difference in H2L2 log(KD) from wild type [8]: 0.7

B6: Design 4320 bispecific antibody, System C (CR8071 H1/L1 & SGN-CD19a H2/L2) (bispecific antibody)
chain 1: B5 chain 1 with L153K, F178G, K191S
chain 2: not shown
chain 3: not shown
chain 4: B5 chain 4 with Q123K, R130S, G132V, L134A, R175S, T177R
Q: For B6, which Kd [9] is on record?
A: 258 nM

Q: And the Kd [10]?
A: 0.49 nM

B7: Design 2816 bispecific antibody, System C (CR8071 H1/L1 & SGN-CD19a H2/L2) (bispecific antibody)
chain 1: B5 chain 1 with Q183K, K191S
chain 2: not shown
chain 3: not shown
chain 4: B5 chain 4 with Q123R, R130S, G132V, Q159K, R175S, T177R
Q: With B7 as the binder, how does the Kd [11] read?
A: 281 nM

Q: And the Kd [12]?
A: 0.42 nM

B8: Design 4040 SGN-CD19a H2L2 arm in OAA (one-armed antibody) format (antibody, V domains shown)
VH: QVTLRESGPALVKPTQTLTLTCTFSGFSLSTSGMGVGWIRQPPGKAPEWLAHIWWDDDKRYNPALKSRLTISKDTSKNQVVLTMTNMDPVDTAAYYCARMELWSYYFDYWGQGTLVTVSS
VL: EIVLTQSPATLSLSPGERATLSCSASSSVSYMHWYQQKPGQAFRLLIYDTSKLASGIPARFSGSGSGTDFTLTISSLEPEDFAVYYCFQGSVYPFTFGQGTKLEIKR
Q: With B8 as the binder, how does the Kd [13] read?
A: 22.4 nM
